Assay results: US20250042970A1 (AURINIA PHARMACEUTICALS, published 2025)
Blank lines part the entries; values can stand above or below the binder they belong to.

Key:
[1] = molecular target: T1, FLAG-tagged cynomolgous APRIL (cynomolgus monkey, UniProt A0ACM8R0G4 110-250 (rhesus entry)); test: BIACORE SPR
T1 construct: FLAG-tagged, expressed with TPA signal peptide; also called cyAPRIL
T1 sequence: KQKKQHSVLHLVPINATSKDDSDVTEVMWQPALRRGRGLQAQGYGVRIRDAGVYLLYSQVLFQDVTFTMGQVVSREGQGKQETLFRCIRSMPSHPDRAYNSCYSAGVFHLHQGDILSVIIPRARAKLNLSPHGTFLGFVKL
From the text: (§1) The standard kinetic assay measures binding kinetics of trimeric ligand (e.g., human BAFF, cynomolgus monkey APRIL, mouse BAFF, or mouse APRIL) coated on sensor chips and dimeric analytes (e.g., variant BCMA-Ig fusion proteins) in the mobile phase. […] For human BAFF, cynomolgus monkey APRIL, and mouse APRIL measurements, mouse monoclonal antibody (IgG1) anti-FLAG M2 (Sigma Aldrich, Cat. No. F1804) was immobilized on CM3 sensor chips (GE Healthcare, Cat. No. BR-1005-41) according to the manufacturer's protocol. Antibody was diluted to 30 μg/ml in immobilization buffer (10 mM pH 5±0.20; GE Healthcare; GE Healthcare, Catalog No. BR-1003-51). […] Unreacted sites were quenched with 35 μl of 1M ethanolamine-HCl, pH 8.5 (GE Healthcare, GE Healthcare, Cat. No. BR-1000-50). This procedure typically yielded 3,000-4,000 response units (RU) of coupled antibody.
(§2) The fusion polypeptides were diluted in HBS-EP buffer and flowed over ligand-coated sensor chips. The variant BCMA-Ig and surrogate control fusion proteins were injected at three concentrations (1.5 nM, 15 nM, and 150 nM at 30 μl/min for 2 minutes per association phase) in a single binding cycle, followed by a 20 minute incubation with HBS-EP buffer containing no protein at the same flow rate. A similar protocol was followed for Z-TACI-Ig, except that the injections were at 4.5 nM, 45 nM, and 450 nM.
(§3) The analyses described above were performed on protein preparations of representative variant BCMA ECD-Ig fusion polypeptides, as well as the Z-TACI-Ig and [S40G]huBCMA ECD-Ig control fusion polypeptides, and the data is presented in Table 1.

FLAG-tagged human BAFF [2] = molecular target: T2, FLAG-tagged human BAFF (human, UniProt Q9Y275 134-285, limits assumed); test: BIACORE SPR
T2 construct: used in BIACORE (Ex. 9) and KINEXA (Ex. 11); also called huBAFF
From the text: as §1, §2, §3

[3] = molecular target: T3, FLAG-tagged recombinant human APRIL (human, UniProt O75888 105-250); test: KinExA
T3 construct: KINEXA ligand; also called huAPRIL
T3 sequence: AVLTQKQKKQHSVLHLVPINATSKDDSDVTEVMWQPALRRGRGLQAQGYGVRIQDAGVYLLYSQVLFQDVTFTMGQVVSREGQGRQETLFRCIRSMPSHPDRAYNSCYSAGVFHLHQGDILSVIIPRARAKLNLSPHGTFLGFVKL
Protocol: (§4) Equilibrium measurements were performed using FLAG-tagged, recombinant huBAFF and huAPRIL ligands. Fixed ligand concentrations of human BAFF or human APRIL were incubated with serial dilutions of the variant BCMA ECD-Ig fusion polypeptides, and free ligand was detected in a KINEXA 3200 Instrument. variant BCMA ECD-Ig fusion polypeptides were first diluted in equilibration buffer (1×PBS, pH 7.4, 1 mg/ml BSA) to a range of concentrations from 10 nM to 100 fM. The linear portion of the dilution series was typically 2-fold. Ligands were diluted in equilibration buffer to fixed concentrations ranging from 5 to 20 pM and then incubated with the variant BCMA-Ig dilutions in total reaction volumes ranging from 4.5 to 15 ml. Samples were incubated at room temperature for 48-72 hours to reach equilibrium. For each data point, a fresh column of 850 μl of bead slurry coated with Variant BAv-238475-Ig was introduced into the KINEXA flow cell. Equilibrated samples ranging from 1 to 5 ml reaction volume were injected at a flow rate of 0.25 ml/min. […] The DyLight 649 fluorescent signal was detected using the red filter set (620/30 nanometer excitation filter, 670/40 nanometer emission filter, 645 nanometer dichroic filter) on the KinExA instrument and converted to a voltage signal that was directly proportional to the concentration of free ligand in the equilibrated sample.
(§5) The standard kinetic exclusion assays and data analyses described above were performed on protein preparations of various variant BCMA ECD-Ig fusion polypeptides, as well as Z-TACI-Ig and [S40G]huBCMA ECD-Ig fusion polypeptides. FIG. 8A, FIG. 8B, and Table 4 summarize the binding data for representative variant BCMA ECD-Ig polypeptides and controls in molar concentrations of huBAFF or huAPRIL determined by KINEXA binding assays.

FLAG-tagged human BAFF [4] = molecular target: T2, FLAG-tagged human BAFF; test: KinExA
Protocol: as §4, §5

[5] = molecular target: T3, FLAG-tagged recombinant human APRIL; test: KinExA; remark: listed apart in the source
Protocol: as §4
(§6) Table 5 provides the selectivities of exemplary variant BCMA polypeptides with respect to BAFF and APRIL.

FLAG-tagged human BAFF [6] = molecular target: T2, FLAG-tagged human BAFF; test: KinExA; remark: listed apart in the source
Protocol: as §4, §6

[7] = molecular target: T1, FLAG-tagged cynomolgous APRIL; test: BIACORE SPR; remark: listed apart in the source
Protocol: (§7) For human BAFF, cynomolgus monkey APRIL, and mouse APRIL measurements, mouse monoclonal antibody (IgG1) anti-FLAG M2 (Sigma Aldrich, Cat. No. F1804) was immobilized on CM3 sensor chips (GE Healthcare, Cat. No. BR-1005-41) according to the manufacturer's protocol. Antibody was diluted to 30 μg/ml in immobilization buffer (10 mM pH 5±0.20; GE Healthcare; GE Healthcare, Catalog No. BR-1003-51). […] Unreacted sites were quenched with 35 μl of 1M ethanolamine-HCl, pH 8.5 (GE Healthcare, GE Healthcare, Cat. No. BR-1000-50). This procedure typically yielded 3,000-4,000 response units (RU) of coupled antibody.
as §2
(§8) Sequence optimization involved generating revertants from the variant BCMA ECD-Ig molecules using standard site-directed mutagenesis methods such as by SOEing as described herein above. Single as well as multiple revertants from twelve different variant-BCMA-pIg18 were generated, cloned in the pcDNA3.1 vector (Life Technologies, as described in Example 6), expressed and purified as described in Examples 6-8. The resulting proteins were assayed for their binding characteristics using Surface Plasmon Resonance as described in Example 9.

FLAG-tagged human BAFF [8] = molecular target: T2, FLAG-tagged human BAFF; test: BIACORE SPR; remark: listed apart in the source
Protocol: as §7, §2, §8

B1: Variant BAv3-10-Ig (Fc fusion, human)
chain: AGQCSQNEYFDRLIRACIPCQLRCSSNTPPLTCQRYCNAGVTNSVKGTNAERKSSVECPPSPAPPVAGPSVFLFPPKPKDTLMISRTPEVTCVVVDVSHEDPEVQFNWYVDGVEVHNAKTKPREEQFNSTFRVVSVLTVVHQDWLNGKEYKCKVSNKGLPAPIEKTISKTKGQPREPQVYTLPPSREEMTKNQVSLTCLVKGFYPSDISVEWESNGQPENNYKTTPPMLDSDGSFFLYSKLTVDKSRWQQGNVFSCSVMHEALHNHYTQKSLSLSPGK
notes: domain: Fc; also called Variant 3-10-Ig; BAv3-10-PIg18
fold improvement KD vs control [1]: 1.1 fold
fold improvement KD vs control (FLAG-tagged human BAFF [2]): 24.6 fold
fold improvement over control [3]: 0.47 fold
fold improvement over control (FLAG-tagged human BAFF [4]): 400 fold
Selectivity for huAPRIL (KD BAFF/KD APRIL) [5]: 1.7 ratio
Selectivity for huBAFF (KD APRIL/KD BAFF) (FLAG-tagged human BAFF [6]): 0.6 ratio

B4: Variant 50238475-Ig (Fc fusion, human)
chain: AGQCSQNEYYDHLIRACISCQIRCSSNNPPPICQRYCNAGVTNSVKGTNAERKSSVECPPSPAPPVAGPSVFLFPPKPKDTLMISRTPEVTCVVVDVSHEDPEVQFNWYVDGVEVHNAKTKPREEQFNSTFRVVSVLTVVHQDWLNGKEYKCKVSNKGLPAPIEKTISKTKGQPREPQVYTLPPSREEMTKNQVSLTCLVKGFYPSDISVEWESNGQPENNYKTTPPMLDSDGSFFLYSKLTVDKSRWQQGNVFSCSVMHEALHNHYTQKSLSLSPGK
notes: domain: Fc; also called Parent 9; Variant 50238475-PIg18
fold improvement KD vs control [1]: 0.2 fold
fold improvement KD vs control (FLAG-tagged human BAFF [2]): 2.2 fold
fold improvement over control [7]: 0.4 fold
fold improvement over control (FLAG-tagged human BAFF [8]): 4.7 fold

B6: Variant BAv1-12-Ig (Fc fusion, human)
chain: AGQCSQNEYFDRLVNACIPCQLRCSSNTPPLTCQRYCNAGVTNSVKGTNAERKSSVECPPSPAPPVAGPSVFLFPPKPKDTLMISRTPEVTCVVVDVSHEDPEVQFNWYVDGVEVHNAKTKPREEQFNSTFRVVSVLTVVHQDWLNGKEYKCKVSNKGLPAPIEKTISKTKGQPREPQVYTLPPSREEMTKNQVSLTCLVKGFYPSDISVEWESNGQPENNYKTTPPMLDSDGSFFLYSKLTVDKSRWQQGNVFSCSVMHEALHNHYTQKSLSLSPGK
notes: domain: Fc; also called Variant 1-12-Ig
fold improvement KD vs control [1]: 1.5 fold
fold improvement KD vs control (FLAG-tagged human BAFF [2]): 9.8 fold
fold improvement over control [3]: 0.68 fold
fold improvement over control (FLAG-tagged human BAFF [4]): 231 fold
Selectivity for huAPRIL (KD BAFF/KD APRIL) [5]: 3.56 ratio
Selectivity for huBAFF (KD APRIL/KD BAFF) (FLAG-tagged human BAFF [6]): 0.3 ratio

Next, values leading:

fold improvement KD vs control [1]: 0.7 fold
fold improvement KD vs control (FLAG-tagged human BAFF [2]): 14.8 fold
fold improvement over control [3]: 0.8 fold
fold improvement over control (FLAG-tagged human BAFF [4]): 533 fold
Selectivity for huAPRIL (KD BAFF/KD APRIL) [5]: 2.1 ratio
Selectivity for huBAFF (KD APRIL/KD BAFF) (FLAG-tagged human BAFF [6]): 0.47 ratio
B2: Variant BAv9-1-Ig (Fc fusion, human)
chain: AGQCSQNEYFDHLIRACIPCQLRCSSNTPPLTCQRYCNAGVTNSVKGTNAERKSSVECPPSPAPPVAGPSVFLFPPKPKDTLMISRTPEVTCVVVDVSHEDPEVQFNWYVDGVEVHNAKTKPREEQFNSTFRVVSVLTVVHQDWLNGKEYKCKVSNKGLPAPIEKTISKTKGQPREPQVYTLPPSREEMTKNQVSLTCLVKGFYPSDISVEWESNGQPENNYKTTPPMLDSDGSFFLYSKLTVDKSRWQQGNVFSCSVMHEALHNHYTQKSLSLSPGK
notes: domain: Fc; also called Variant 9-1-Ig; BAv9-1-pIg18

fold improvement KD vs control [1]: 0.7 fold
fold improvement KD vs control (FLAG-tagged human BAFF [2]): 12.6 fold
fold improvement over control [3]: 7.1 fold
fold improvement over control (FLAG-tagged human BAFF [4]): 75.3 fold
Selectivity for huAPRIL (KD BAFF/KD APRIL) [5]: 134 ratio
Selectivity for huBAFF (KD APRIL/KD BAFF) (FLAG-tagged human BAFF [6]): 0.0075 ratio
B3: Variant BAv8-9-Ig (Fc fusion, human)
chain: AGQCSQNEYFDHLLRACIPCQLRCSSNTPPLTCQRYCNAGVTNSVKGTNAERKSSVECPPSPAPPVAGPSVFLFPPKPKDTLMISRTPEVTCVVVDVSHEDPEVQFNWYVDGVEVHNAKTKPREEQFNSTFRVVSVLTVVHQDWLNGKEYKCKVSNKGLPAPIEKTISKTKGQPREPQVYTLPPSREEMTKNQVSLTCLVKGFYPSDISVEWESNGQPENNYKTTPPMLDSDGSFFLYSKLTVDKSRWQQGNVFSCSVMHEALHNHYTQKSLSLSPGK
notes: domain: Fc; also called Variant 8-9-Ig; BAv8-9-PIg18

fold improvement KD vs control [1]: 0.6 fold
fold improvement KD vs control (FLAG-tagged human BAFF [2]): 7.6 fold
fold improvement over control [3]: 0.1 fold
fold improvement over control (FLAG-tagged human BAFF [4]): 224 fold
Selectivity for huAPRIL (KD BAFF/KD APRIL) [5]: 0.62 ratio
Selectivity for huBAFF (KD APRIL/KD BAFF) (FLAG-tagged human BAFF [6]): 1.6 ratio
B5: Variant BAv11-6-Ig (Fc fusion, human)
chain: AGQCSQNEYFDRLLRACIPCQVRCSSNTPPLTCQRYCNAGVTNSVKGTNAERKSSVECPPSPAPPVAGPSVFLFPPKPKDTLMISRTPEVTCVVVDVSHEDPEVQFNWYVDGVEVHNAKTKPREEQFNSTFRVVSVLTVVHQDWLNGKEYKCKVSNKGLPAPIEKTISKTKGQPREPQVYTLPPSREEMTKNQVSLTCLVKGFYPSDISVEWESNGQPENNYKTTPPMLDSDGSFFLYSKLTVDKSRWQQGNVFSCSVMHEALHNHYTQKSLSLSPGK
notes: domain: Fc; also called Variant 11-6-Ig; BAv11-6-PIg18
